Assay results published in the supplement of paper PMC9170038.

System: MS2 coat protein
Experiment: apparent KD of MS2 coat protein; higher = weaker reporter binding
Details: Eterna round: R107
Protocol: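 RNA-MaP round R107: designed RNA switches with theophylline, tryptophan, arginine or FMN aptamers are transcribed on-chip within common flanks. They are titrated with SNAP-549-labelled MS2 coat protein in RNA-MaP buffer (100 mM Tris pH 7.5, 80 mM KCl, 4 mM MgCl2), without ligand or with the indicated ligand. Median apparent KD per design.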

[1] = input ligand: theophylline 20 uM
[2] = input ligand: theophylline 2 mM
[3] = input ligand: tryptophan 2.4 mM

Row | Sequence | apparent KD of MS2 coat protein (input ligand: arginine 13.2 mM) [µM] | apparent KD of MS2 coat protein (input ligand: none) [µM] | apparent KD of MS2 coat protein [1] [µM] | apparent KD of MS2 coat protein [2] [µM] | apparent KD of MS2 coat protein [3] [µM]
1 | ACGAUAGGACUUGAGGAUCACCCAAGUGAUACCAGCCUGGAAACAGGCCCUUGGCAGCACUAAUACUCCAAUAACCUAUCGAAUA [TheoAX 14 #MicroSwitchBubble #AlternativeMS2] | 0.0786 | 0.232 | 0.228 | 0.387 | 0.395
2 | ACGGGCAUGGCGGCCGCCACUGGUUGGCGUGCGGAUGAGGGAACAUGAGGAUCACCCAUGUUGGUUAGGACCGGGCUGGCGUCGA [kkymullin] | 0.0126 | 0.0154 | 0.0498 | 0.016 | 0.018
3 | ACGUAAUGCGGAAGGAGCGUCAUUUUAAAACAUGAGGAUCACCCAUGUAAUAUUUUUGUGUGACAGGUAGGUCGCCGAAGUACGA [#07 Same State - Arginine B] | 0.0144 | 0.0129 | 0.0193 | 0.0144 | 0.0136
4 | ACGUUUUAGUCGGCCGCCACUGUUUUCAUGUUCAACAUGAGGAUCACCCAUGUACCUUUUUUUAUCAGGACCGGGACGUAAUAGA [JR_SSTryptoB_Sub004] | 0.0477 |  | 0.102 | 0.0773 | 
5 | ACUGGACAUGAGGAUCACCCAUGUGGCGAUACCAGUUUCAGCGGGAACCCUUGGCAGCGCGGUGCCGGCCAUAGAAGUUCUGGGA [theeternabot_sameState_MS2_Theo_A_39] | 0.0421 |  | 0.0561 |  | 0.0406
6 | ACUUUGUCGGGUGAUACCAGCCUCGGCAAAUCUCGUGCCGAACAUGAGGAUCACCCAUGUGGCCCUUGGCAGCACAUGACAACUC [Cezara] | 0.0263 |  | 0.546 |  | 0.912
7 | AGACAUGAGGAUCACCCAUGUAGUACGGAUACCAGAUCCAGAUGCGUCCCUUGGCAGCUGUAGUACAGCGUUACAUCGCUCGUAG [Exclusion - Theophylline A (Freestyle 24)] | 0.0169 |  | 0.0248 |  | 0.0224
8 | AGAUUACAUGUUAUAAUACGGUAUACUGAUACCAGUGUUUCUAUUCACCCUUGGCAGCAGCAACAUGAGGAUCACCCAUGUAUUA [JR_SSTheophyA_Sub017] | 0.0149 |  | 0.0214 |  | 0.0177
9 | AGAUUCGACACGGCCGCCACUCGUGACGGAUUUCCGAGUGUCGAACAUGAGGAUCACCCAUGUACGAGGACCGGGUGUUGAGUCU [XTryp B #13] | 0.0396 |  | 0.0867 | 0.0904 | 
10 | AGCAACAAGUCGGCCGCCACUCUUUUAACAUGAGGAUCACCCAUGUUUAUAUCAUGGUUUUAAUAGAGGACCGGGACAGUUGCAU [JR_ExcTryptoB_Sub005] | 0.0263 |  | 0.037 | 0.0432 | 
11 | AGCACGGUGAUGGUAGCCGGACGAUAAGUACGAGGACCGGUACGGCCGCCACUCGAAGUCCUACGACAUGAGGAUCACCCAUGUA [Same State Trp A GF11] | 0.0304 |  | 0.047 | 0.0736 | 
12 | AGCACUGUGACGGCCGCCACUAUAUUAGGGUGGUCAGGUUCAUAAAUACAUGAGGAUCACCCAUGUAGGACCGGGUCUCAGUGCA [Omei Trp Exc B A v3] | 0.0111 |  | 0.0138 | 0.0123 | 
13 | AGCAGCUCGAAAGAGUUGCACUCAUGUGAAGGAGCGCCCGUUAGGGCAGGUAGGUCGCACAUGAGGAUCACCCAUGUACCUUCUA [ArgAX 20 #OpenEnded #MS2Late] | 0.0844 | 0.174 | 0.182 | 0.273 | 0.188
14 | AGCAGCUGGUUUCUUUUCUUUACAGCUGCACGAGGACCGGUACGGCCGCCACUCGAGGACAUGAGGAUCACCCAUGUGCCGGUCG | 0.0341 | 0.0256 | 0.0406 | 0.0497 | 0.0227
15 | AGCGACAUGCGUGAUACCAGCUACAUGAGGAUCACCCAUGUACGUCAGUAAUGACUGUGUAGCCCUUGGCAGCAUAAUGCAUGUC [Exclusion - Theophylline B (Freestyle 18)] | 0.0361 |  | 0.0558 |  | 0.0333
16 | AGCGCAGGUCCUGAUACCAGAGACAUGAGGAUCACCCAUGUCCGAUGGUCCUGCCUCAGGCUCCCUUGGCAGCAGGGCUUGUGCU [Exclusion Theophylline B GF10] | 0.0106 |  | 0.0131 |  | 0.0101
17 | AGCGUAUAGACGGAUACCAGCGCCGAUUAACAUGAGGAUCACCCAUGUAGUGUGGGUGGACGCCCUUGGCAGCCGAGUAUAGGUA [#07 Exclusion-TheophyllineB] | 0.391 | 0.0897 | 0.115 | 0.36 | 0.221
18 | AGCUCAUAGAGUGAUACCAGACUACAUGAGGAUCACCCAUGUUACUUUUAAAUAUCAUUUGUCCCUUGGCAGCACAUGAAGAGCA [JR_Nu_ExcTheophyB_Sub017] | 0.0183 |  | 0.0185 |  | 0.0138

Row | Sequence | apparent KD of MS2 coat protein (input ligand: arginine 13.2 mM) [µM] | apparent KD of MS2 coat protein (input ligand: none) [µM] | apparent KD of MS2 coat protein [1] [µM] | apparent KD of MS2 coat protein [2] [µM] | apparent KD of MS2 coat protein [3] [µM]
19 | AGGCUUCGCAUAGGAAAACUAUGUGAAGCCCGAGGACCGGUACGGCCGCCACUCGUCCUCAACAUGAGGAUCACCCAUGUAAUAA [Mat - Exclusion - Trytophan A - D1] | 0.0245 | 0.0154 | 0.0416 | 0.0246 | 0.0288
20 | AGUAGUUGACAAAAGUCAGCUACAAUUGAAGGAGCGGGAUCCUUCCCAGGUAGGUCGCAAUAACAUGAGGAUCACCCAUGUCAAA [ArgAS 4 #BothOrNeither #OpenEnded] | 0.0159 | 0.0277 | 0.0266 | 0.0204 | 0.0203
21 | AGUCACUCGAGGUGAUCUGACGAGUGGCAACGAGGACCGGUACGGCCGCCACUCGAAUAAACAUGAGGAUCACCCAUGUACAAAU [T''-M'-T'-T-MS2 - Design 11] | 0.054 |  | 0.216 | 0.626 | 
22 | AGUCUUAAUGGAAGGAGCGCAGUCAUAACAUGAGGAUCACCCAUGUCGAUGUGAGGGUCAUUGCAGGUAGGUCGCCAUACUAAGA [Same State - Arginine B (Freestyle 4)] | 0.0247 | 0.031 | 0.025 | 0.0253 | 0.0326
23 | AGUCUUGAACGAAGGAGCGACGUACAUGAGGAUCACCCAUGUGGAGCGAAAGCUCCGUAACGUCAGGUAGGUCGCGUUCGAGACA [Omei Arginine B SS A v3] | 0.00689 | 0.00925 | 0.0156 | 0.0131 | 0.0125
24 | AGUUUGGACUCGGCCGCCACUCGUGAUGCUUUGGCACAUGAGGAUCACCCAUGUGGUCGGCCUUAGAGGACCGGGAGUACCAGCC [Edesceso] | 0.0825 |  | 0.297 | 0.343 | 
25 | AUAACAUGAGGAUCACCCAUGUAAGCAGAUACCAGCUAGGAAACUAGCCCUUGGCAGCUGCAAUCAUGGGUGUUUGCAGCUGCAA [(M1)-(M2)-(T1)-(T2)-(M)'-(T)'_Design2] | 0.0212 | 0.0181 | 0.0369 | 0.0199 | 0.013
26 | AUAAGUAAUGUUUCGUGUAUUAUUACAGAUACCAGACUAUACGUUGUCCCUUGGCAGCUGGAUUACAUGAGGAUCACCCAUGUUG [JR_ExcTheophyA_Sub002] | 0.016 |  | 0.0193 |  | 0.0171
27 | AUACAUGAGGAUCACCCAUGUGAUGGCCGGCGAGGACCGGUACGGCCGCCACUCGUGAUCCGUCCUGAAAGCAAAGCUCCCAGCA [Lalazare] | 0.0251 |  | 0.244 | 0.178 | 
28 | AUACCUAAUGUUACAUUUACCUUAUCAGAUACCAGACUUUACGUUGUCCCUUGGCAGCUGUAUCACAUGAGGAUCACCCAUGUUG [JR_SSTheophyA_Sub010] | 0.0171 |  | 0.0192 |  | 0.0153
29 | AUAUAUACAUGAGGAUCACCCAUGUUAUUACGAGGACCGGUACGGCCGCCACUCGAUAGAGUAGAAGUAAAUUGUAAUUCAUGUU [JR_ExcTryptoA_Sub016] | 0.0138 |  | 0.0156 | 0.0116 | 
30 | AUAUAUACAUGAGGAUCACCCAUGUUAUUUCGAGGACCGGUACGGCCGCCACUCGAUAGAGUGGAAGUAACAUUUGUUAGAUGAU [JR_SSTryptoA_Sub013] | 0.0128 |  | 0.017 | 0.0163 | 
31 | AUCCACAGCCGAAGGAGCGCAGUAGGAUGACAUGAGGAUCACCCAUGUGUGUGAUGUGGAUUGCAGGUAGGUCGCGGAGUGGGUU [Exclusion - Arginine B (Freestyle 8)] | 0.0439 | 0.0717 | 0.0725 | 0.0736 | 0.0726
32 | AUCGUACCUAAUGAUACCAGCAAGUGAUCAUAACAUGAGGAUCACCCAUGUAAUCAGUGAUGCCCUUGGCAGCAUAAUCGUUACA [Same State - Theophylline B (Freestyle 2)] | 0.0947 |  | 0.218 |  | 0.169
33 | AUCGUACCUAGUGAUACCAGCAAGUGAUCAUAACAUGAGGAUCACCCAUGUAAUCAGUGAUGCCCUUGGCAGCAUAAUCGUUACA [Same State - Theophylline B (Freestyle 1)] | 0.118 |  | 0.228 |  | 0.173
34 | AUCUUUGAUGAUCUGGGAAAACCAGAUCGGCGAGGACCGGUACGGCCGCCACUCGUGUAUAAUAUACAUGAGGAUCACCCAUGUA [#20 Tryptophan A Same State] | 0.05 | 0.0554 | 0.099 | 0.0916 | 0.0251
35 | AUCUUUGGCGAUCUGGGAAAACCAGAUCGACGAGGACCGGUACGGCCGCCACUCGUGUAUAAUAUACAUGAGGAUCACCCAUGUA [#18 Tryptophan A Same State] | 0.0278 |  | 0.0611 | 0.0647 | 
36 | AUGACUCACAAAGAAGAUAAAAUGGGUGAACGAGGACCGGUACGGCCGCCACUCGGACAUGAGGAUCACCCAUGUCCAUGUGCAA [#24 Exclusion Tryptophan A] | 0.016 |  | 0.0243 | 0.021 | 
